Key:
[1] = tested on: P19 murine embryonic carcinoma stem cell line; experiment: Stable transfection silencing screen of candidate UCOEs linked to Ef1α-GFP; format: cell-based, mouse; conditions: UCOE-Ef1α-GFP stable transfection
Protocol: The candidate regions tested were Candidates 1, 1R, 3, 5, 6, 6R, 7, 8, 9R, 10, and 10R, with “R” denoting that the reverse orientation of the candidate region was tested. As a negative control, the stable expression construct without a UCOE or candidate region was assessed (Ef1a). As a positive control, the 2.2 kB A2UCOE sequence, as well as the 1.2 kB reverse orientation sequence 3′UCOE, were cloned into the same reporter construct as the candidate sequences. The percent GFP positive in the population was monitored as a metric for silencing by flow cytometry analysis with each passage, with the change (difference between final and initial time points) plotted on the graph (Δ% GFP+).
The assay is the same stable transfection screen format described for FIG. 2B. […]
Fluorescence data throughout silencing experiments was obtained using a MACSQuant® VYB flow cytometer (Miltenyi Biotec). EGFP was measured through the 488-nm laser and 525/50 nm band pass filter. Flow cytometry data was analyzed using the FlowJo™ single cell flow cytometry analysis software (Tree Star). […]
Candidates were initially screened in the P19 murine embryonic carcinoma stem cell line. […] As P19 cells readily integrate DNA, a stable transfection of the expression construct performed. […]

[2] = tested on: P19 cells; experiment: Standalone (intrinsic) promoter activity screen, UCOE-GFP construct lacking the Ef1a promoter; format: cell-based, mouse; conditions: for inherent promoter activity: synthetic construct without other promoter
From the text: A schematic representation of the expression construct in which the candidate region (UCOE) is inserted upstream of the GFP gene in the absence of any other promoter sequences as used is shown as an inlay. As positive controls, the Ef1α promoter, the 2.2 kB A2UCOE sequence, and the 1.2 kB reverse orientation sequence 3′UCOE, were cloned into the same reporter construct as the candidate sequences. The percent GFP positive in the population was monitored as a metric for gene expression by flow cytometry analysis with each passage (% GFP). Stably transfected cells were assayed for % GFP+ and median fluorescent intensity (normalized to Ef1a promoter control). Data is reported as mean±SD from biological duplicates.
P19 cells were seeded at 25,000 cells/well in 12 well plates. 24 h after seeding, cells were transfected using Lipofectamine™ 2000 transfection reagent (Thermo Fisher) according to the manufacturer's instructions using 500 ng DNA/well and 2.5 μL of Lipofectamine per well. 24 hours after transfection, selection was initiated with 1 μg/mL puromycin (Sigma-Aldrich) in regular growth media and, from then on, cells were passaged at 1:15 or 1:20 dilutions whenever cells were 80-90% confluent (every 2-3 days) with frequent refreshing of puromycin-containing media to clear dead cells. After approximately 14-16 days, remaining cells were assumed to be stably transfected and were changed to regular growth media to initiate silencing experiments. During silencing experiments, the P19 cells were passaged every 2-3 days and re-seeded at 15,000 cells/well.
Fluorescence data throughout silencing experiments was obtained using a MACSQuant® VYB flow cytometer (Miltenyi Biotec). EGFP was measured through the 488-nm laser and 525/50 nm band pass filter. Flow cytometry data was analyzed using the FlowJo™ single cell flow cytometry analysis software (Tree Star). After being gated for singlets and viability, GFP+ gates in FlowJo were drawn such that a non-transfected or non-transduced P19 cell population was at 1% GFP+. Median values reported are of cells within the GFP+ gate, both % GFP positive and median are reported with the standard deviation of biological replicates.
As A2UOCE dually functions as a protective regulatory element and a universal promoter, the candidate UCOEs were further screened for standalone promoter activity. A similar experiment as the aforementioned screen was performed using a similar expression construct that lacked the Ef1a promoter. This construct was used to assess whether the candidate sequences could drive reporter expression and act as stand-alone functional promoters. Candidates were compared to the positive control of the EF1a promoter, which had ˜70% GFP+ cells after two weeks of antibiotic selection, showing a distinct positive population in the fluorescence histogram. The GFP+ gate (i.e., flow cytometry fluorescence threshold for GFP+ cells) was set to encompass 1% of untransfected cells and then applied to all samples. […] Such a result appears as a bimodal distribution on a histogram, with a peak below the gate threshold (i.e., GFP negative cell population) and a peak above it (i.e., the distinct GFP positive population mentioned above). […] In this study, a % GFP+ of at least 50% is considered to reflect the existence of a second population in the histograms, and thus a binary indicator of promoter function. […] The median GFP intensity of the GFP+ population was used a measure of the strength of the promoter, and normalized to the Ef1a positive control as shown in FIG. 2C.
This aligns with previous observations that the RNPA2B1 promoter is much stronger than that of CBX3 (Zhang, F., et al. (2010) Mol Ther, 18, 1640-1649 (7)). However, the RNPA2B1 promoter in A2UCOE is only 30% as strong as the EF1α promoter. […]

B1: Candidate 6: Full length SRF-UCOE, SEQ ID NO:1; region between human SURF1 and SURF2 including first introns, chr9 (nucleic acid, listed as Homo sapiens)
DNA: GCACACGACCACAATTCCACTGAAAGCATTTTAATACGGAACTTGTCACTCCCAGGGAGCCTCCGCTCAGCCGGCAGTTGGTTCATTTCAATCCCCACGACAACCCTTCAAAGTGCAGGGCAGACAGCAGGTGGCTCTGCCCAGGCGCCTGGATCACAGCCCGGCCTGCAGCCCTCACCTGGGCGCGGGGAGACCCTGAGGACGCTCCTCCAGGCGGCGCTGGCCGGGGCCTGCGGACACGGACGGGCGGGCTGAGCTCCGGGACCCCTCCCCGCGCCCCGCACCCCGCACCCCGCACCCCGCACCCCGCACCCGGCGCTCACCCGTCCCAGCCCCGCCGCCCGCAGCCCCAGCTGCAACGCAGCCACCGCCGCCATCGCACCCGGCCCCGCGGGCGCTTCCGGGACGCAGGAGGCATCTGCATCCGGGGCGCCGCTGAGTCCCGCCCAGAGCCCCGCCCCCGGCTCCAGGTTCTGCGAGCGGCTTCCGCCGGGCTGCTCCGCGGGCGCGTCGGCCATGAGCGAGTTGCCGGGCGACGTGCGGGCGTTTCTGCGGGAGCACCCGAGCCTGCGGCTCCAGACGGACGCCCGCAAGGTTCGCAGCGCGGGAGGGGAACGGAGTGGCGGAGAAGGGCGCAGTTGGGATGAGGGGCTGAGGGGAGGGCAGGGGAGAGGAGAGGGCAGGGGAGAGGGGAGAGGGGAGAGCAGGAGAGAGGGGAAGGCAGGGGAGAGGGCGCGGCGGGATCAGGGGAGGAGAGGGAAGGGGGCGCGGCAGGAGGGGGCACCAGGGAGCGGAGCCCTGGCCCTCCTGACGTCCTGCCCGCCCACGCGTCCGCAGGTGAGGTGCATCCTGACAGGTCACGAGCTGCCCTGCCGCCTGCCGGAGCTCCAGGTCTACACCCGCGGCAAAAAGTACCAGCGGCTGGTCCGCGCCTCCCCGGCCTTCGACTATGCAGAGTTCGAGCCGCACATCGTGCCCAGCACCAAGAACCCGTAGGTGGTC
[1]; 19 days
  silencing resistance / stable expression relative to the negative (Ef1α-only) control: significant improvement in stable expression
[1]; over 19 days after puromycin removal, flow cytometry
  loss in percent GFP positive cells over the time period: about 6%
[2]; at least 50% GFP+ = second population
  peaks in fluorescence histogram (binary indicator of promoter function): only one peak
[2]; promoterless GFP construct, after two weeks of antibiotic selection, one representative example
  % GFP+ cells, representative flow cytometry example: 1.99%
[2]
  inherent promoter activity: did not exhibit inherent promoter activity
[2]; listed as SRF-UCOE element
  inherent promoter activity: does not initiate transcription

Source: patent US12611470B2, “Chromatin-opening element for stable long term gene expression” (CZ Biohub SF, LLC, priority 2019, dated 2026)
